Patent US20160060347A1 (MorphoSys, published 2016)
Where no end group is shown, it is not given here.

T1: N-Terminal Peptide aa1-17 (Transferrin- or BSA-Coupled) (human, also: coupled to carrier protein (BSA or transferrin), site not given here)
T1 peptide: MEDFNMESDSFEDFWKGC

T2: human CXCR2 (human, UniProt P25025 1-360)
T2 construct: Expressed on Flp-In CHO cells (FACS, Fab-ZAP, ADCC, CDC) or on bought PathHunter CHO cells (beta-arrestin assay); the construct in the PathHunter cells is not described; also called chemokine receptor CXCR2; CXCR2 CHO Flp-In cells
T2 sequence: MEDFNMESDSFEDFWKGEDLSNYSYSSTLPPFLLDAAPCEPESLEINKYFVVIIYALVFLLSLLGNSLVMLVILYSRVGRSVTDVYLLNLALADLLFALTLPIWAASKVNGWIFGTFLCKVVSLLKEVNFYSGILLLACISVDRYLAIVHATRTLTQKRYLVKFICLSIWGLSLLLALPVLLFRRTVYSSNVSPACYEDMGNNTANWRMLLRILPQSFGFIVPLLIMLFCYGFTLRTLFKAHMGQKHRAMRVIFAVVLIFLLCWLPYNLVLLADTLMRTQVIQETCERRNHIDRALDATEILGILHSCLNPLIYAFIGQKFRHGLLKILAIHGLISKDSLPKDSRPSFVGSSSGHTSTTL

T3: peptide derived of extracellular domain three (human, coupled to a carrier protein (BSA or transferrin, not stated which))
T3 construct: also called ECL3 peptide
T3 peptide: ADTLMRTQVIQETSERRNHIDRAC


How the values were obtained:
[1] = biological target: T1, N-Terminal Peptide aa1-17 (Transferrin- …); experiment: initial screening, Fab; carrier of the peptide not stated
human CXCR2 [2] = biological target: T2, human CXCR2; experiment: FACS, CXCR2 CHO Flp-In cells, Fab
Procedure: (§1) Human CXCR2-expressing Flp-In™ CHO cells were harvested at ˜80% confluence washed once with PBS (Gibco, Cat #14190-094) and detached using Versene (Invitrogen, Cat #15040-033). Subsequently, cells were counted and centrifuged at 250×g for 5 min at 4° C. Afterwards, cells were diluted in Superblock (Thermo Fisher Perbio Science, Cat #37515) to a cell concentration of 2E+05-1E+06/mL and 100 μL/well were transferred to 96-well microtiter plate (Nunc, Cat#163320). Cells were once centrifuged, supernatant discarded and antibodies added at 1 μg/mL (unless stated otherwise), incubated for 1 h at 4° C. and washed twice with FACS buffer (PBS/3% FCS/0.02% NaN3). Binding of anti-CXCR2 antibodies was detected by incubation of Phycoerythrin-conjugated anti-human IgG (Dianova, Cat #109-116-097) for 1 h at 4° C. Samples were subsequently measured using FACS Array (Becton Dickinson).
(§2) The Fabs were further tested including affinity determination via BiaCore, EC₅₀ determination in ELISA and FACS, as well as the evaluation of cellular cytotoxicity via secondary immunotoxin (Saporin) upon antibody internalization (Fab-ZAP). Respective experimental settings as outlined in Example 3 were used.

[3] = biological target: T4, hu_CXCR2_N-term (1-17)-BSA (human; bovine, coupled to carrier protein BSA; C-terminal cysteine introduced to enable coupling); experiment: SPR (Biacore), peptide-BSA immobilized, Fab analyte, steady-state fit
T4 construct: Synthetic linear peptide chemically coupled to the carrier; also called CXCR2_aa1-17_BSA; CXCR2 aa1-17 BSA
T4 sequence (P02769 25-607 limits assumed): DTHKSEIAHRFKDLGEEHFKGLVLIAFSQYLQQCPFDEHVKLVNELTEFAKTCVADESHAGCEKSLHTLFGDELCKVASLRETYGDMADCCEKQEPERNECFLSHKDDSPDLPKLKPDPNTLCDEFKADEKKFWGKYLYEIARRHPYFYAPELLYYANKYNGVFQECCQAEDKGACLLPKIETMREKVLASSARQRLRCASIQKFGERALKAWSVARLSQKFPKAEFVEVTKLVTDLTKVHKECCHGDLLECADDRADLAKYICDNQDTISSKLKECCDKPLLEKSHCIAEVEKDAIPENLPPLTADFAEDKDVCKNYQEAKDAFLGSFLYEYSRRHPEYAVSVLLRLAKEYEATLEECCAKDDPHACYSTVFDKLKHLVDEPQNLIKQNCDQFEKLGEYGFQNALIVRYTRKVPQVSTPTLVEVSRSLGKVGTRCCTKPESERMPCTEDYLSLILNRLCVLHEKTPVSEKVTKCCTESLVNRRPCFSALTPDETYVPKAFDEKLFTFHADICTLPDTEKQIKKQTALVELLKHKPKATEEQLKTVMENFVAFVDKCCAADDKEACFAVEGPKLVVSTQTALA
Procedure: (§3) Affinities (KD values) were determined using SPR (Biacore T200, GE Healthcare) using the following setup: The antigens (hu_CXCR2_N-term (1-17)-BSA, or hu_CXCR2_N-term (1-17)-Trf, respectively) were covalently coupled to a CM5 sensor chip using NHS/EDC chemistry. Antigens were diluted in 10 mM Acetate pH4.5 to a concentration of approx. 100 μg/mL. The final immobilization level was approx. 400 RU for the BSA-coupled peptide and 200 RU for the TRF-coupled peptide. HBS-EP pH7 was used as running buffer throughout the experiment at a flow rate of 30 μL/min. Fab fragments were used as samples (monomer portion at least 90% as determined by HP-SEC, Superdex 75 PC3.2/30 (GE Healthcare). Of each sample, a 2n serial dilution row from 31.25-1000 nM was prepared (6 concentrations) and injected, followed by a blank injection, which was later used for double referencing. Association of Fab samples was recorded for 240 s, and dissociation was monitored for 300 s. At the end of each cycle bound (Fab−) sample was removed from the sensor with one 30 s injection of MgCl2 (3M).
(§4) Most of the recorded binding curves deviated from the expected bimolecular binding model (1:1), but the sensorgrams seemed to reach equilibrium towards the late association phase. Therefore, the binding data (report point late association) was fitted to a steady state model. The Req vs. concentration plots/fits followed the assumed one-binding-site model, and the resulting KD were reported. EC50 values determined by ELISA were in the single digit nanomolar range on N-terminal CXCR2 peptides. […] Respective results of selected 6 Fabs are summarized in Table 1 (data of one representative experiments are shown).

[4] = biological target: T5, hu_CXCR2_N-term (1-17)-Trf (human, coupled to carrier protein human transferrin; C-terminal cysteine introduced to enable coupling); experiment: ELISA, coated peptide-TRF, Fab
T5 construct: Synthetic linear peptide chemically coupled to the carrier; also called CXCR2_aa1-17_TRF; N-terminal peptide aa1-17, Transferrin-coupled
T5 sequence (P02787 20-698 limits assumed): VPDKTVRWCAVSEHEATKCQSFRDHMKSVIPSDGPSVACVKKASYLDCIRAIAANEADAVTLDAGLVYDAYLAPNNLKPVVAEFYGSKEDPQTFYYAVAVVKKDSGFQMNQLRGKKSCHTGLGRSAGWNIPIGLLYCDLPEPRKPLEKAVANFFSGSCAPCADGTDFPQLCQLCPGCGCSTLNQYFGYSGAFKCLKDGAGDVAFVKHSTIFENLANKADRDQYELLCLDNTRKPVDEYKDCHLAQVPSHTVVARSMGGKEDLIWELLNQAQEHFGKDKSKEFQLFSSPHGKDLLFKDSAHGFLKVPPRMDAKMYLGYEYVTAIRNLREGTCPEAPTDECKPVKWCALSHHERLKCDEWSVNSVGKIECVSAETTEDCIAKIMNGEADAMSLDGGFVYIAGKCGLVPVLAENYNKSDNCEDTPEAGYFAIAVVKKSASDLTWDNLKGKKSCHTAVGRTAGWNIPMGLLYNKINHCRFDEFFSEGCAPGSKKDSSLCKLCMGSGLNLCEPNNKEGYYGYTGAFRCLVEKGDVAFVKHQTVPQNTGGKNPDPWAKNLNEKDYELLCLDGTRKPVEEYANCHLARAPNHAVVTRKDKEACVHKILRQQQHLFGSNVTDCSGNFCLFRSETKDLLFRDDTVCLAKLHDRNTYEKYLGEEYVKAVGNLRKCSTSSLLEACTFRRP
Procedure: (§5) 384-well Maxisorp plates (Nunc; Cat. #460518) were coated with respective CXCR2 and control peptides coupled either to BSA or Transferrin (TRF) at 1-5 μg/mL and incubated o/n at 4° C. […] After three washing steps, antibodies were added at 5-10 μg/mL and titrated in some experiments. Antibodies were incubated 1 h at room temperature and plates were subsequently washed. Binding of anti-CXCR2 antibodies was detected by using alkaline phosphatase-conjugated anti-human IgG, (Dianova, Cat #109-055-097). AttoPhos fluorescence substrate (Roche, Cat #1484281) was added according to instructions of the manufacturer and fluorescence was measured (excitation at 430 nm, emission at 535 nm) using a microplate reader.
as §2

[5] = biological target: T4, hu_CXCR2_N-term (1-17)-BSA; experiment: ELISA, coated peptide-BSA, Fab
Procedure: as §5, §2

[6] = biological target: T5, hu_CXCR2_N-term (1-17)-Trf; experiment: SPR (Biacore), peptide-TRF immobilized, Fab analyte, steady-state fit
Procedure: as §3, §4

[7] = biological target: T3, peptide derived of extracellular domain …; experiment: ELISA, Fab
Procedure: as §5, §2

[8] = biological target: T4, hu_CXCR2_N-term (1-17)-BSA; experiment: ELISA, coated peptide-BSA, IgG1
Procedure: as §5

[9] = biological target: T6, N-terminal peptide aa1-48, BSA-coupled (human; bovine, coupled to carrier protein BSA; C-terminal cysteine introduced to enable coupling); experiment: ELISA, coated peptide-BSA, IgG1
T6 construct: also called CXCR2 aa1-48 BSA
T6 sequence (P02769 25-607 limits assumed): as the sequence (P02769 25-607 limits assumed) above
Procedure: as §5

[10] = biological target: T7, ECL3 peptide aa273-295, BSA-coupled (human; bovine, coupled to carrier protein BSA; C-terminal cysteine introduced to enable coupling); experiment: ELISA, coated peptide-BSA, IgG1
T7 construct: also called CXCR2 aa273-295 BSA; peptides representing the extracellular domain 3
T7 sequence (P02769 25-607 limits assumed): as above
Procedure: as §5

human CXCR2 [11] = biological target: T2, human CXCR2; experiment: FACS, CXCR2 CHO Flp-In cells, IgG1
Procedure: as §1

Row | Binder | signal over background [1] [fold] | EC50 (human CXCR2 [2]) [nM] | Kd [3] [nM] | EC50 [4] [nM] | EC50 [5] [nM] | Kd [6] [nM] | binding result [7] | binding result [8] | binding result [9] | binding result [10] | binding result (human CXCR2 [11])
1 | CX2-Mab #3 (Fab format) (Fab, V domains shown) VH: EVQLLESGGGLVQPGGSLRLSCAASGFTFSSYWMSWVRQAPGKGLEWVSVISYSGSETFYADSVKGRFTISRDNSKNTLYLQMNSLRAEDTAVYYCARGRVGYAFDYWGQGTLVTVSS VL: DIVLTQPPSVSGAPGQRVTISCSGSSSNIGVNYVNWYQQLPGTAPKLLIYSNNQRPSGVPDRFSGSKSGTSASLAITGLQAEDEADYYCQSRASGFYSVVFGGGTKLTVLG | ≥ 5 | 105 | 393 | 2 | 4.7 | 317 | no binding | – | – | – | –
2 | CX2-Mab #3.1 (antibody, IgG1, V domains shown) VH: QVQLLESGGGLVQPGGSLRLSCAASGFTFSSYWMSWVRQAPGKGLEWVSVISYSGSETFYADSVKGRFTISRDNSKNTLYLQMNSLRAEDTAVYYCARGRVGYAFDYWGQGTLVTVSS VL: DIVLTQPPSVSGAPGQRVTISCSGSSSNIGVNYVNWYQQLPGTAPKLLIYSNNQRPSGVPDRFSGSKSGTSASLAITGLQAEDEADYYCQTRAVHFARVVFGGGTKLTVLG | – | – | – | – | – | – | – | binds | binds | binds | binds
3 | CX2-Mab #5 (Fab format) (Fab, V domains shown) VH: EVQLLESGGGLVQPGGSLRLSCAASGFTFNSNAMSWVRQAPGKGLEWVSFISYSGSHTYYADSVKGRFTISRDNSKNTLYLQMNSLRAEDTAVYYCARYTRFLSRPAFDPWGQGTLVTVSS VL: DIVLTQPPSVSGAPGQRVTISCTGSSSNIGAGYDVHWYQQLPGTAPKLLIYYNSKRPSGVPDRFSGSKSGTSASLAITGLQAEDEADYYCGAYDRKMNSYVFGGGTKLTVLG | ≥ 5 | > 6000 | 146 | 0.5 | 0.6 | 149 | no binding | – | – | – | –
4 | CX2-Mab #6 (Fab format) (Fab, V domains shown) VH: EVQLLESGGGLVQPGGSLRLSCAASGFTFSSYTMSWVRQAPGKGLEWVSAIHSSGSSTYYADSVKGRFTISRDNSKNTLYLQMNSLRAEDTAVYYCARVPAYYGFDHWGQGTLVTVSS VL: DIELTQPPSVSVSPGQTASITCSGDSLGAFYVHWYQQKPGQAPVLVIYRTNNRPSGIPERFSGSNSGNTATLTISGTQAEDEADYYCASYASRNRVFGGGTKLTVLG | ≥ 5 | 195 | 353 | 0.5 | 1.3 | 251 | no binding | – | – | – | –
5 | CX2-Mab #1 (Fab format) (Fab, V domains shown) VH: QVQLVQSGAEVKKPGSSVKVSCKASGGTFSSYAISWVRQAPGQGLEWMGGIIPIVGEAKYAQKFQGRVTITADESTSTAYMELSSLRSEDTAVYYCARDSSGYDGYYAFAYWGQGTQVTVSS VL: DIVLTQPPSVSGAPGQRGTISCSGSSSNIGSSSVNWYQQLPGTAPKLLIYRNNQRPSGVPDRFSGSKSGTSASLAITGLQAEDEADYYCGATDFSANQVVFGGGTKLTVLG | ≥ 5 | 365 | 534 | 1 | 6.1 | 269 | no binding | – | – | – | –
6 | CX2-Mab #1.5 (antibody, IgG1, V domains shown) VH: QVQLVQSGAEVKKPGSSVKVSCKASGGTFSSYAISWVRQAPGQGLEWMGGIIPIVGEAKYAQKFQGRVTITADESTSTAYMELSSLRSEDTAVYYCARDSSGYDGYYAFAYWGQGTQVTVSS VL: DIVLTQPPSVSGAPGQRGTISCSGSSSNIGSSSVNWYQQLPGTAPKLLIYRNNQRPSGVPDRFSGSKSGTSASLAITGLQAEDEADYYCASTDSQWRQIVFGGGTKLTVLG | – | – | – | – | – | – | – | binds | binds | binds | binds
7 | CX2-Mab #2 (Fab format) (Fab, V domains shown) VH: QVQLVQSGAEVKKPGASVKVSCKASGYTFSRYAMHWVRQAPGQGLEWMGVINPYNGNTRYAQKFQGRVTMTRDTSISTAYMELSRLRSEDTAVYYCARGSHIQAGAFDYWGQGTLVTVSS VL: DIQMTQSPSSLSASVGDRVTITCRASQGINNRLNWYQQKPGKAPKLLIYDGSSLQSGVPSRFSGSGSGTDFTLTISSLQPEDFATYYCQQYIHFPVTFGQGTKVEIKR | ≥ 5 | > 6000 | 221 | 1.3 | 3.6 | 210 | no binding | – | – | – | –
8 | CX2-Mab #4 (Fab format) (Fab, V domains shown) VH: EVQLLESGGGLVQPGGSLRLSCAASGFTFSSNGMSWVRQAPGKGLEWVSAISSSGSKTYYADSVKGRFTISRDNSKNTLYLQMNSLRAEDTAVYYCARGYGFDVWGQGTLVTVSS VL: DIVLTQPPSVSGAPGQRVTISCSGSSSNIGVNIVNWYQQLPGTAPKLLIYSTSNRPSGVPDRFSGSKSGTSASLAITGLQAEDEADYYCATRDGISKSVVFGGGTKLTVLG | ≥ 5 | 136 | 143 | 0.4 | 0.8 | 101 | no binding | – | – | – | –
